Data from patent US20100254901, “Compositions comprising nucleic acid aptamers” (published 2010).

Legend:
[1] = system: Bovine gamma globulin (BGG) (Bos taurus); test: FP; conditions: control protein
[2] = target: T1, Carcinoembryonic antigen (CEA) (Homo sapiens, UniProt P06731 P06731:35-685); test: FP; physiological binding buffer; table header prints nM-1, text nM; conditions: tags: Calbiochem; label: 5'-fluorescein
Text: (§1) A fluorescent polarization (FP) assay was used to test the affinity of several oligonucleotide sequences to CEA (Table 4). The initial studies focused on 5 oligonucleotides. Clone 22 and clone 26 contained the sequences with the highest identity to the G-rich motif. The aptamers were synthesized with fluorescein at their 5′ ends and binding was analysis using the Beacon 2000 instrument equipped with a 530 nm emission filter and a 490 nm excitation filter from Pan Vera Corp. (Madison Wis.).
(§2) In the FP assay, fluorescently labelled aptamers are added to the protein. Binding is detected by an increase in fluorescent polarization cause by the decrease in rotation of the protein bound fluorescein (FIG. 4A). The Kd is calculated by determining the CEA concentration at the half maximal mP value as determined from plots of averaged stable mP data as shown in FIGS. 4B and C. […] Unfortunately, others members of the CEA superfamily are not available commercially.
FIG. 4. Binding of clone26bases 1-50 to CEA monitored by FP in a physiological binding buffer using 4 nM aptamer. (A) Shown is the mP as a function a reading number (sample #). CEA (8 nM) was added after the tenth reading. (B) Shown is the average mP vs aptamer concentration. (C) Shown is the average mP vs CEA concentration within the linear range.

[3] = target: Bovine serum albumin (BSA) (Bos taurus, UniProt P02769 P02769:25-607); test: FP; control protein; conditions: label: 5'-fluorescein
Text: as §1, §2

[4] = target: T1, Carcinoembryonic antigen (CEA); test: FP; physiological binding buffer; conditions: tags: Calbiochem; label: 5'-fluorescein
Text: as §1, §2

[5] = target: T1, Carcinoembryonic antigen (CEA); test: FP; primer region absent; physiological binding buffer; conditions: tags: Calbiochem; label: 5'-fluorescein
Text: as §1, §2

T1 sequence (P06731 35-685, one chain of several): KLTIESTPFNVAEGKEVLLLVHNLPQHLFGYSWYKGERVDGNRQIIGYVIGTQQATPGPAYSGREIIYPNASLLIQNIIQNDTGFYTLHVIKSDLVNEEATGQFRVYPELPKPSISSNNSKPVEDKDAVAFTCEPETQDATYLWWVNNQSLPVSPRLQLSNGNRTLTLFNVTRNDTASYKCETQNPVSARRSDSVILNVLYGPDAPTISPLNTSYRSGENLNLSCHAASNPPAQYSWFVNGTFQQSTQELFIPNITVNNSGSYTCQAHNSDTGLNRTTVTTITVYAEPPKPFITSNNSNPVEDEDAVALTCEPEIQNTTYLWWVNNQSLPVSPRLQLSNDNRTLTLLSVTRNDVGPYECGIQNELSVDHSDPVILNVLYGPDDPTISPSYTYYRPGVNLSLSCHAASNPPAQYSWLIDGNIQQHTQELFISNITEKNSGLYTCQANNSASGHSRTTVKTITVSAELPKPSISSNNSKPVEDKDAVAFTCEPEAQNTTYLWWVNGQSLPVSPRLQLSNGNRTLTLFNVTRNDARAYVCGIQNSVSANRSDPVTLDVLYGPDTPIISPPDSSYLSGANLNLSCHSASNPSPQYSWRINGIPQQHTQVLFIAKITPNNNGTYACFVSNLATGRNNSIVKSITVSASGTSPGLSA
Chain of Bovine serum albumin (BSA) (P02769 25-607, one chain of several): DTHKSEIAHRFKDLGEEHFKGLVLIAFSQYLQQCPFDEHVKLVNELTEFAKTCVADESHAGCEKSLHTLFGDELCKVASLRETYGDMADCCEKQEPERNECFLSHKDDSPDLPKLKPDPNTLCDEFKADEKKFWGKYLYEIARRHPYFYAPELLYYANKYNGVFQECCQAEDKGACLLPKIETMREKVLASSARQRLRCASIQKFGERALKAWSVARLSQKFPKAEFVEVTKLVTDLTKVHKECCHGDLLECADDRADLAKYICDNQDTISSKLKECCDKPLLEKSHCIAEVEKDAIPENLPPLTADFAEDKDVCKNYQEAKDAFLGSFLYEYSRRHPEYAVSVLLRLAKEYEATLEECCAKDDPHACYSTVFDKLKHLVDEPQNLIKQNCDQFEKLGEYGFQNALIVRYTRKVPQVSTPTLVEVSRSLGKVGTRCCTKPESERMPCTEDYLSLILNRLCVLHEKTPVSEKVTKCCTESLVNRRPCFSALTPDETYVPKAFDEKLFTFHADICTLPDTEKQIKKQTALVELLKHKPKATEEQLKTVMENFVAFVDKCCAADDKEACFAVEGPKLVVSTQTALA

Molecule	Kd [1] [nM]	Kd [3] [nM]	other results
ATACCAGCTTATTCAATTGGGGTAGGGGGCGAAGCGATACCCTAATCAGC [clone26bases1-50]	100	–	–
ATACCAGCTTATTCAATTGGGGGAGGGGGCGACGCGATACCC [clone22bases1-42]	500	–	–
ATACCAGCTTATTCAATT [5' primer]	400	–	–
GGGGGAGGGGGCGACGCGATACCC [clone22bases19-42]	250	–	–
ATACCAGCTTATTCAATTGGGGTAGGGGGCGAAGCGATACCCTAATCAGC (ssDNA) [clone26bases1-50]	–	100	Kd [2]: 4 nM
ATACCAGCTTATTCAATT (ssDNA) [5' primer]	–	300	Kd [4]: 5 nM
ATACCAGCTTATTCAATTGGGGGAGGGGGCGACGCGATACCC (ssDNA) [clone22bases1-42]	–	200	Kd [4]: 5 nM
GGGGGAGGGGGCGACGCGATACCC (ssDNA) [clone22bases19-42]	–	400	Kd [5]: 20 nM
